Experimental data from patent US20200317768A1 (published 2020).

T1: human FcγRIIaR extracellular domain, C-terminal His-tag (human, UniProt P12318 34-217)
T1 construct: also called human FcγRIIa (type R); FcgRIIaR; not shown: His-tag added to C-terminus
T1 chain: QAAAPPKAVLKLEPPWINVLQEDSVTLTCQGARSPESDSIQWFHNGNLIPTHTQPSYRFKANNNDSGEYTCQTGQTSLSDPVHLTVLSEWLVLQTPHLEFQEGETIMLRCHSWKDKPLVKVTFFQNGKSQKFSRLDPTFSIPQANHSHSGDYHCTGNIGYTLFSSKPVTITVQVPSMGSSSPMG

T2: human FcγRIIaH extracellular domain, C-terminal His-tag (human, UniProt P12318 34-217)
T2 construct: also called human FcγRIIa (type H); FcgRIIaH; not shown: His-tag added to C-terminus
T2 sequence: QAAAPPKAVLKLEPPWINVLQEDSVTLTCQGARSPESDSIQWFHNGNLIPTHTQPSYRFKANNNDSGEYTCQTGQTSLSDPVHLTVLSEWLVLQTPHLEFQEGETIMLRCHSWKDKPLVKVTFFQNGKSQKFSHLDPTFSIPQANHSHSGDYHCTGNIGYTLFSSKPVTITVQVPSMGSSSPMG

T3: cynomolgus monkey FcγRIIa1 extracellular domain, C-terminal His-tag (cynomolgus monkey)
T3 construct: also called cyno FcγRIIa1; cynoFcgRIIa1; not shown: His-tag added to C-terminus
T3 chain: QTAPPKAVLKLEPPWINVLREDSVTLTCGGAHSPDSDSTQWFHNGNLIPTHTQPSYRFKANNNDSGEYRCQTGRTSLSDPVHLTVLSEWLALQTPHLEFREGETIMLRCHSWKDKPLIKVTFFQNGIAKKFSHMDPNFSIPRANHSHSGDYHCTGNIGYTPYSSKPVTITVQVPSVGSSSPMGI

T4: human FcγRIIb extracellular domain, C-terminal His-tag (human, UniProt P31994 43-217)
T4 construct: also called humanFcgRIIb; not shown: His-tag added to C-terminus
T4 sequence: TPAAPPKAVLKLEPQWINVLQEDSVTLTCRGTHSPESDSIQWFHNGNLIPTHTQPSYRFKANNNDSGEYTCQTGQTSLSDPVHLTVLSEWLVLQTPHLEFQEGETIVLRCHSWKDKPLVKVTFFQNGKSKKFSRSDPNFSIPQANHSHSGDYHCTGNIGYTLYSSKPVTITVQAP


How the values were obtained:
Experiment in all cases: SPR (BIACORE), antibody captured, FcγR analyte
[1] = molecular target: T1, human FcγRIIaR extracellular domain, …
Experimental: (§1) The kinetic analysis of interactions between these antibodies and FcγR was carried out using BIACORE® T200 or BIACORE® 4000 (GE Healthcare). HBS-EP+ (GE Healthcare) was used as the running buffer, and the measurement temperature was set to 25° C. A chip produced by immobilizing Protein A. Protein A/G or mouse anti-human IgG kappa light chain (BD Biosciences) onto a Series S Sensor Chip CM4 or CM5 (GE Healthcare) by the amine-coupling method was used. […] After the measurement, the antibody captured on the chip was washed off by allowing reaction with 10 mM glycine-HCl, pH1.5 and 25 mM NaOH so that the chip was regenerated and used repeatedly. The sensorgrams obtained as measurement results were analyzed by the 1:1 Langmuir binding model using the BIACORE® Evaluation Software to calculate the binding rate constant ka (L/mol/s) and dissociation rate constant kd (l/s), and the dissociation constant KD (mol/L) was calculated from these values. […] Regarding such interactions, KD values were calculated using the following 1:1 binding model described in BIACORE® T100 Software Handbook BR1006-48 Edition AE.
(§2) The behavior of interacting molecules according to the 1:1 binding model on BIACORE® can be described by Equation 1: Req=C·R max/(KD+C)+RI, wherein, Req is a plot of steady-state binding levels to analyte concentration. C is concentration, RI is bulk refractive index contribution in the sample, and Rmax is analyte binding capacity of the surface. When this equation is rearranged, KD can be expressed as Equation 2: KD=C·Rmax/(Req−RI)−C. KD can be calculated by substituting the values of Rmax, RI, and C into Equation 1 or Equation 2. From the current measurement conditions, RI=0, C=2 μmol/L can be used.

[2] = molecular target: T2, human FcγRIIaH extracellular domain, …
Experimental: as §1, §2

[3] = molecular target: T3, cynomolgus monkey FcγRIIa1 …
Experimental: as §1, §2

[4] = molecular target: T5, cynomolgus monkey FcγRIIIaS extracellular domain, C-terminal His-tag (cynomolgus monkey, UniProt A3RFZ7 21-206 (rhesus entry))
T5 construct: also called cyno FcγRIIIaS; cynoFcγRIIIaS; not shown: His-tag added to C-terminus
T5 sequence (A3RFZ7 21-206): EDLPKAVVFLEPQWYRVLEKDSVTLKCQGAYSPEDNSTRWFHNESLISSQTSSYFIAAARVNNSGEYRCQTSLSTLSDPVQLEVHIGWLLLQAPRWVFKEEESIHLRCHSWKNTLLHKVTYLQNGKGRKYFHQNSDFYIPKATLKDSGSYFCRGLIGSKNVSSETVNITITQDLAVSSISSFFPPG
Experimental: as §1, §2

[5] = molecular target: T4, human FcγRIIb extracellular domain, …
Experimental: as §1, §2

Row | Binder | Kd [1] [µM] | Kd [2] [µM] | Kd [3] [µM] | Kd [4] [µM] | Kd [5] [µM]
1 | M103205H795-MY205 / M103202L889-SK1 (antibody, human IgG1, kappa, CH with G236N/H268D/Q295L/A330K against SG1 (EU numbering); also called MS1032LO06-MY205) heavy: QVTLKESGPVLVKPTETLTLTCTVSGIDLSHDDISWVRQAPGKGLEWVGIISYAGSTYYASWAKGRLTISKDTSKNQVVLTMTNMDPVDTATYYCARGVPAYSHGGDLWGQGTLVTVSSASTKGPSVFPLAPSSKSTSGGTAALGCLVKDYFPEPVTVSWNSGALTSGVHTFPAVLQSSGLYSLSSVVTVPSSSLGTQTYICNVNHKPSNTKVDKKVEPKSCDKTHTCPPCPAPELLNGPSVFLFPPKPKDTLMISRTPEVTCVVVDVSDEDPEVKFNWYVDGVEVHNAKTKPREELYNSTYRVVSVLTVLHQDWLNGKEYKCKVSNKALPKPIEKTISKAKGQPREPQVYTLPPSREEMTKNQVSLTCLVKGFYPSDIAVEWESNGQPENNYKTTPPVLDSDGSFFLYSKLTVDKSRWQQGNVFSCSVMHEALHNHYTQKSLSLSP light: DIVMTQSPATLSLSPGERATLSCTSSQSVYHANWLSWFQQKPGQPPKLLIYWASTLAYGVPSRFSGSGSGTDFTLTISSLQPEDAATYYCAGGYGGGRYAFGQGTKVEIKRTVAAPSVFIFPPSDEQLKSGTASVVCLLNNFYPREAKVQWKVDNALQSGNSQESVTEQDSKDSTYSLSSTLTLSKADYEKHKVYACEVTHQGLSSPVTKSFNRGEC | 1.3 | 0.47 | 0.9 | 6 | 0.56
2 | M103205H795-MY344 / M103202L889-SK1 (antibody, human IgG1, kappa, CH with G236N/H268D/Q295L/Q311R/A330K/D413K against SG1 (EU numbering); also called MS1032LO06-MY344) heavy: QVTLKESGPVLVKPTETLTLTCTVSGIDLSHDDISWVRQAPGKGLEWVGIISYAGSTYYASWAKGRLTISKDTSKNQVVLTMTNMDPVDTATYYCARGVPAYSHGGDLWGQGTLVTVSSASTKGPSVFPLAPSSKSTSGGTAALGCLVKDYFPEPVTVSWNSGALTSGVHTFPAVLQSSGLYSLSSVVTVPSSSLGTQTYICNVNHKPSNTKVDKKVEPKSCDKTHTCPPCPAPELLNGPSVFLFPPKPKDTLMISRTPEVTCVVVDVSDEDPEVKFNWYVDGVEVHNAKTKPREELYNSTYRVVSVLTVLHRDWLNGKEYKCKVSNKALPKPIEKTISKAKGQPREPQVYTLPPSREEMTKNQVSLTCLVKGFYPSDIAVEWESNGQPENNYKTTPPVLDSDGSFFLYSKLTVKKSRWQQGNVFSCSVMHEALHNHYTQKSLSLSP light: DIVMTQSPATLSLSPGERATLSCTSSQSVYHANWLSWFQQKPGQPPKLLIYWASTLAYGVPSRFSGSGSGTDFTLTISSLQPEDAATYYCAGGYGGGRYAFGQGTKVEIKRTVAAPSVFIFPPSDEQLKSGTASVVCLLNNFYPREAKVQWKVDNALQSGNSQESVTEQDSKDSTYSLSSTLTLSKADYEKHKVYACEVTHQGLSSPVTKSFNRGEC | 1.2 | 0.67 | 0.89 | 4.9 | 0.72

Second part, the binder after the results:

Row | Kd [1] [µM] | Kd [2] [µM] | Kd [3] [µM] | Kd [4] [µM] | Kd [5] [µM] | Binder
3 | 1.8 | 1 | 0.92 | 5.2 | 1.2 | M103205H795-MY351 / M103202L889-SK1 (antibody, human IgG1, kappa, CH with G236N/H268D/Q311R/A330K/D413K against SG1 (EU numbering); also called MS1032LO06-MY351) heavy: QVTLKESGPVLVKPTETLTLTCTVSGIDLSHDDISWVRQAPGKGLEWVGIISYAGSTYYASWAKGRLTISKDTSKNQVVLTMTNMDPVDTATYYCARGVPAYSHGGDLWGQGTLVTVSSASTKGPSVFPLAPSSKSTSGGTAALGCLVKDYFPEPVTVSWNSGALTSGVHTFPAVLQSSGLYSLSSVVTVPSSSLGTQTYICNVNHKPSNTKVDKKVEPKSCDKTHTCPPCPAPELLNGPSVFLFPPKPKDTLMISRTPEVTCVVVDVSDEDPEVKFNWYVDGVEVHNAKTKPREEQYNSTYRVVSVLTVLHRDWLNGKEYKCKVSNKALPKPIEKTISKAKGQPREPQVYTLPPSREEMTKNQVSLTCLVKGFYPSDIAVEWESNGQPENNYKTTPPVLDSDGSFFLYSKLTVKKSRWQQGNVFSCSVMHEALHNHYTQKSLSLSP light: DIVMTQSPATLSLSPGERATLSCTSSQSVYHANWLSWFQQKPGQPPKLLIYWASTLAYGVPSRFSGSGSGTDFTLTISSLQPEDAATYYCAGGYGGGRYAFGQGTKVEIKRTVAAPSVFIFPPSDEQLKSGTASVVCLLNNFYPREAKVQWKVDNALQSGNSQESVTEQDSKDSTYSLSSTLTLSKADYEKHKVYACEVTHQGLSSPVTKSFNRGEC
4 | 1.1 | 0.57 | 1.3 | 3.9 | 0.59 | M103205H795-PK2 / M103202L889-SK1 (antibody, human IgG1, kappa, CH with G236N/H268E/A330K/P396M/S400R/D413K against SG1 (EU numbering); also called MS1032LO06-PK2; MS103205H795-PK2) heavy: QVTLKESGPVLVKPTETLTLTCTVSGIDLSHDDISWVRQAPGKGLEWVGIISYAGSTYYASWAKGRLTISKDTSKNQVVLTMTNMDPVDTATYYCARGVPAYSHGGDLWGQGTLVTVSSASTKGPSVFPLAPSSKSTSGGTAALGCLVKDYFPEPVTVSWNSGALTSGVHTFPAVLQSSGLYSLSSVVTVPSSSLGTQTYICNVNHKPSNTKVDKKVEPKSCDKTHTCPPCPAPELLNGPSVFLFPPKPKDTLMISRTPEVTCVVVDVSEEDPEVKFNWYVDGVEVHNAKTKPREEQYNSTYRVVSVLTVLHQDWLNGKEYKCKVSNKALPKPIEKTISKAKGQPREPQVYTLPPSREEMTKNQVSLTCLVKGFYPSDIAVEWESNGQPENNYKTTPMVLDRDGSFFLYSKLTVKKSRWQQGNVFSCSVMHEALHNHYTQKSLSLSP light: DIVMTQSPATLSLSPGERATLSCTSSQSVYHANWLSWFQQKPGQPPKLLIYWASTLAYGVPSRFSGSGSGTDFTLTISSLQPEDAATYYCAGGYGGGRYAFGQGTKVEIKRTVAAPSVFIFPPSDEQLKSGTASVVCLLNNFYPREAKVQWKVDNALQSGNSQESVTEQDSKDSTYSLSSTLTLSKADYEKHKVYACEVTHQGLSSPVTKSFNRGEC
5 | 0.29 | 0.29 | 2 | 1.5 | 2.3 | M103205H795-MY335 / M103202L889-SK1 (antibody, human IgG1, kappa, CH with G236T/H268D/Q311R/A330K/D413K against SG1 (EU numbering); also called MS1032LO06-MY335) heavy: QVTLKESGPVLVKPTETLTLTCTVSGIDLSHDDISWVRQAPGKGLEWVGIISYAGSTYYASWAKGRLTISKDTSKNQVVLTMTNMDPVDTATYYCARGVPAYSHGGDLWGQGTLVTVSSASTKGPSVFPLAPSSKSTSGGTAALGCLVKDYFPEPVTVSWNSGALTSGVHTFPAVLQSSGLYSLSSVVTVPSSSLGTQTYICNVNHKPSNTKVDKKVEPKSCDKTHTCPPCPAPELLTGPSVFLFPPKPKDTLMISRTPEVTCVVVDVSDEDPEVKFNWYVDGVEVHNAKTKPREEQYNSTYRVVSVLTVLHRDWLNGKEYKCKVSNKALPKPIEKTISKAKGQPREPQVYTLPPSREEMTKNQVSLTCLVKGFYPSDIAVEWESNGQPENNYKTTPPVLDSDGSFFLYSKLTVKKSRWQQGNVFSCSVMHEALHNHYTQKSLSLSP light: DIVMTQSPATLSLSPGERATLSCTSSQSVYHANWLSWFQQKPGQPPKLLIYWASTLAYGVPSRFSGSGSGTDFTLTISSLQPEDAATYYCAGGYGGGRYAFGQGTKVEIKRTVAAPSVFIFPPSDEQLKSGTASVVCLLNNFYPREAKVQWKVDNALQSGNSQESVTEQDSKDSTYSLSSTLTLSKADYEKHKVYACEVTHQGLSSPVTKSFNRGEC
